The values that follow come from patent publication US20040181033A1 (Amgen, published 2004).

Assay [1] concerns the target T1, recombinant mature myostatin (human, UniProt O14793 267-375).
T1 sequence (looked up): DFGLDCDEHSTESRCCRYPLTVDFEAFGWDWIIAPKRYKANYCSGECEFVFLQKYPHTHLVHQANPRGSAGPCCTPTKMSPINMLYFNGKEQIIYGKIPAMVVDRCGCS
Nature of the assay: cell-based or functional assay.

Assay [2] deals with T1, recombinant mature myostatin. As to the kind of experiment: cell-based or functional assay. This is another data set of the same source.

B1: TN8-19 peptide (peptide)
peptide: QGHCTRWPWMCPPY
Consider B1, for which, in assay [1], the “IC50 (read off the curve)” value was roughly 20 µM.

B2: recombinant human activin receptor IIB/Fc chimera (Fc fusion, UniProt Q13705 19-134, looked up, not shown: a dimerising Fc or GST)
chain: SGRGEAETRECIYYNANWELERTNQSGLERCEGEQDKRLHCYASWRNSSGTIELVKKGCWLDDFNCYDRQECVATEENPQVYFCCCEGNFCNERFTHLPEAGGPEVTYEPPPTAPT
With B2, in assay [2], the “IC50 (C2C12 pMARE-luc)” value was roughly 83 nM.
